This passage reports stoichiometry N results from article PMC5070119.

The target of test [1] is cytosolic purine 5'-nucleotidase (cN-II) L375F, C-terminally truncated (human) (UniProt P49902). The experiment in a line: SEC; Superdex 200 10/300 GL, 50 mM sodium phosphate pH 7.4, 100 mM NaCl, 2 mM TCEP; 200 ul of 0.5 mg/ml protein; calibrated with high molecular weight standards.
Test [2] shares this target. Nature of the test: SAXS; truncated proteins 0.25 to 2 mg/ml in 50 mM sodium phosphate pH 7.4, 100 mM NaCl, 2 mM TCEP, 5 % glycerol; BM29 beamline ESRF; Guinier approximation, P(r), Porod volume.
Test [3] concerns the target cytosolic purine 5'-nucleotidase (cN-II), C-terminally truncated wild type (human) (UniProt P49902). The experiment in a line: SEC; Superdex 200 10/300 GL, 50 mM sodium phosphate pH 7.4, 100 mM NaCl, 2 mM TCEP; 200 ul of 0.5 mg/ml protein; calibrated with high molecular weight standards. In general terms: Size exclusion chromatography separates by hydrodynamic size, large species first.

Test [4] has the same target. The experiment in a line: SAXS; truncated proteins 0.25 to 2 mg/ml in 50 mM sodium phosphate pH 7.4, 100 mM NaCl, 2 mM TCEP, 5 % glycerol; BM29 beamline ESRF; Guinier approximation, P(r), Porod volume.
Test [5] concerns the target cytosolic purine 5'-nucleotidase (cN-II) R238W, C-terminally truncated (human) (UniProt P49902). Nature of the test: SEC; Superdex 200 10/300 GL, 50 mM sodium phosphate pH 7.4, 100 mM NaCl, 2 mM TCEP; 200 ul of 0.5 mg/ml protein; calibrated with high molecular weight standards.
The target is the same in test [6]. Nature of the test: SAXS; truncated proteins 0.25 to 2 mg/ml in 50 mM sodium phosphate pH 7.4, 100 mM NaCl, 2 mM TCEP, 5 % glycerol; BM29 beamline ESRF; Guinier approximation, P(r), Porod volume.
The target of test [7] is cytosolic purine 5'-nucleotidase (cN-II) R367Q, C-terminally truncated (human) (UniProt P49902). The experiment in a line: SEC; Superdex 200 10/300 GL, 50 mM sodium phosphate pH 7.4, 100 mM NaCl, 2 mM TCEP; 200 ul of 0.5 mg/ml protein; calibrated with high molecular weight standards.
Test [8] shares this target. Nature of the test: SAXS; truncated proteins 0.25 to 2 mg/ml in 50 mM sodium phosphate pH 7.4, 100 mM NaCl, 2 mM TCEP, 5 % glycerol; BM29 beamline ESRF; Guinier approximation, P(r), Porod volume.

Turning to “cytosolic purine 5'-nucleotidase (cN-II) L375F, C-terminally truncated (from UniProt P49902 1-536) (enzyme)”, the stoichiometry N in test [1] and in test [2] was 4 in each case.
Take “cytosolic purine 5'-nucleotidase (cN-II), C-terminally truncated wild type (from UniProt P49902 1-536) (enzyme)”: the stoichiometry N in test [3] and in test [4] was 4 in each case.
“cytosolic purine 5'-nucleotidase (cN-II) R238W, C-terminally truncated (from UniProt P49902 1-536) (enzyme)”: the stoichiometry N in test [5] and in test [6] was 4 in each case.
For “cytosolic purine 5'-nucleotidase (cN-II) R367Q, C-terminally truncated (from UniProt P49902 1-536) (enzyme)”, the stoichiometry N in test [7] and in test [8] was 4 throughout.

Broadly, the stoichiometry N is the number of molecules, sites or subunits per partner or assembly.
